In patent publication US10946092 (BEIJING MABWORKS BIOTECH, dated 2021):
Where two headings read alike, the source gives them in different places.

B1: humanized (with affinity maturation) antibody 101F4H2L2-8 (antibody, human IgG4 S228P, kappa, V domains shown)
VH: QVQLVQSGAEVKKPGASVKVSCKVSGYTFTDYEMHWVRQAPGKGLEWMGAIDPETGGIVYNQRFKGRVTLTADTSTDTAYMELSSLRSEDTAVYYCATTGWNDWGQGTTVTVSS
VL: DIQMTQSPSSLSASVGDRVTITCKASQDINSYLSWYQQKPGKAPKLLIYRANRLLDGVPSRFSGSGSGQDYTLTISSLQPEDFATYYCQQYDEFPFTFGQGTKLEIKR
B2: chimeric 134G10 antibody (antibody, human IgG4 S228P, kappa, V domains shown)
VH: EVQLVESGGDLVKPGGSLKLSCAASGFTFSSFGMSWVRQTPDKRLEWVGIISSGGTYTFYPDILKGRFTISRDNAKNTLYLQMSSLKSEDTAMYYCARVYSDYDGRFDYWGQGTTLTVSS
VL: DIVMTQSPSSLSVSAGEKVTMNCKSSQSLLNSGNQKNYLAWYQQKPGQPPKLLIYGASTRESGVPDRFTGSGSGTDFTLTISSVQAEDLAVYYCQNDHSYPLTFGAGTKLELKR
notes: Mouse variable regions on human IgG4 (S228P)/kappa constant regions; also called 134G10-CM
B3: chimeric 101F4 antibody (antibody, human IgG4 S228P, kappa, V domains shown)
VH: EVQLEQSGAELVRPGASVTLSCKASGYTFTDYEMHWVKQTPVYGLEWMGAIDPETGGIVYNQRFKGKAILTADKSSSTAYMELRSLTSEDSAVYYCTGAGWGYWGQGTTLTVSS
VL: DIVITQSPSSMYASLGERVTITCKASQDINSYLSWFQQKPGKSPKTLIYRANRLLDGVPSRFSGSGSGQDYSLTISSLEFEDMGLYYCLQYDEFPFTFGSGTKLEIKR
notes: Mouse variable regions on human IgG4 (S228P)/kappa constant regions; also called 101F4-CM

Key:
Human PBMC = target: T1, Human PBMC; assay: FACS on activated human PBMC
T1 chain: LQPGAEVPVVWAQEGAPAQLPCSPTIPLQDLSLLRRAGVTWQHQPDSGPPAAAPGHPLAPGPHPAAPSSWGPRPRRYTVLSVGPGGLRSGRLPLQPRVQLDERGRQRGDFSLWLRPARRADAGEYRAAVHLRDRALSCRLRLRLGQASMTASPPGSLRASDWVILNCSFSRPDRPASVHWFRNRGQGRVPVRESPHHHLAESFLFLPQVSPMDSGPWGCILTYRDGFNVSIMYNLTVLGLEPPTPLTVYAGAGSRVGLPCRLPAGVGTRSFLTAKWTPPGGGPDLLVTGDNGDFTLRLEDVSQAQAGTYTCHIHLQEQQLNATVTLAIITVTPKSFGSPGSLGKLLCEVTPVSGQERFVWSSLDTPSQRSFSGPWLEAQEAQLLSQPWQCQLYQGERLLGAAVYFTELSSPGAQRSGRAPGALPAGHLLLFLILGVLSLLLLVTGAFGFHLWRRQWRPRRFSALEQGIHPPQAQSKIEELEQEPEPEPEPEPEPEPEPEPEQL
Experimental: (§1) Briefly, 10^5 HEK293A cells in 50 μl PBS buffers were seeded into each well of the 96-well plates and then added with 50 μl of serially diluted anti-LAG3 antibodies (5-fold dilution, starting from 40 μg/ml). After incubated at 4° C. for 1 hour, plates were washed 3 times with PBST. Then, an APC coupled Goat Anti-Mouse IgG (BioLegend, US, Cat #: 405308) diluted 500× was added to the plates. After incubation at 4° C. for 1 hour, the plates were washed with PBS for 3 times and then cell fluorescence was monitored using a FACS machine (BD).
(§2) Further, the binding activities of the two antibodies to actived human PBMCs were investigated by FACS. Briefly, human PBMCs were collected by density gradient centrifugation and then re-suspended in the complete medium (RPMI medium+10% FBS+ human IL-2 (20 IU/ml, R&D, Cat #: 202-IL)+ Dynabeads™ Human T-Activator CD3/CD28 (Gibco, Cat #: 11132D)) at 37° C. under 5% CO_2 in a humidified incubator for 2 days to get activated T cells. The cells were then collected and tested by FACS as described in Example 6.

[1] = target: T2, monkey (rhesus) LAG3 expressed on HEK293A cells (monkey (rhesus), UniProt A0A5F8A874 23-533); assay: FACS on HEK293A cells expressing rhesus LAG3
T2 construct: whole, on cells; also called HEK293A/rh LAG3
T2 sequence: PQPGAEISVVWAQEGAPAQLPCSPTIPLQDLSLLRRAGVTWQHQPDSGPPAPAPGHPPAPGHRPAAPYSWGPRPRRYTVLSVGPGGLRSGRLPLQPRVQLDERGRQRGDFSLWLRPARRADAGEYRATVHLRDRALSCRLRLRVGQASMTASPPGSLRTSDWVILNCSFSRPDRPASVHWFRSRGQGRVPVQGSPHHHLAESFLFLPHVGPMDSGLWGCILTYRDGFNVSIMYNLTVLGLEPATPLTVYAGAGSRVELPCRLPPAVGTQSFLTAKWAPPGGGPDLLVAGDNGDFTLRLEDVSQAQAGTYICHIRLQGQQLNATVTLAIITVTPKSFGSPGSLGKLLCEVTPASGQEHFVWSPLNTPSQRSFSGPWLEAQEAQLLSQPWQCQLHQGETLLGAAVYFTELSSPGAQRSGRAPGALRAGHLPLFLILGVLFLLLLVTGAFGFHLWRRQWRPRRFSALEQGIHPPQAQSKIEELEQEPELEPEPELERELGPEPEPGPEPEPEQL
Experimental: as §1, §2

[2] = target: T3, monkey LAG3(ECD)-mFc protein (ACRO, Cat #: LA3-052A0) (monkey); assay: SPR (BIAcore 8K), monkey LAG3(ECD)-mFc coupled to chip, antibody injected, 1:1 Langmuir
T3 construct: extracellular domain; Bought protein
Experimental: (§3) Serially diluted antibodies at concentrations ranging from 0.3 μM to 10 μM were injected into the SPR running buffer (HBS-EP buffer, pH7.4, GE Life Sciences; US; Cat #: BR-1006-69) at 30 μL/minute. The binding capacities were calculated with the RUs of blank controls subtracted. The association rate (Ka) and dissociation rate (Kd) were calculated using the one-to-one Langmuir binding model (BIA Evaluation Software, GE Life Sciences). The equilibrium dissociation constant K_D was calculated as the kd/ka ratio.

[3] = target: T4, recombinant human LAG3(ECD)-his (Sino Biological, Cat #: 16498-H08H) (human, UniProt P18627 23-450); assay: SPR (BIAcore 8K), human LAG3(ECD)-his coupled to chip, antibody injected, 1:1 Langmuir
T4 construct: extracellular domain; Bought protein; not shown: his tag
T4 sequence (looked up): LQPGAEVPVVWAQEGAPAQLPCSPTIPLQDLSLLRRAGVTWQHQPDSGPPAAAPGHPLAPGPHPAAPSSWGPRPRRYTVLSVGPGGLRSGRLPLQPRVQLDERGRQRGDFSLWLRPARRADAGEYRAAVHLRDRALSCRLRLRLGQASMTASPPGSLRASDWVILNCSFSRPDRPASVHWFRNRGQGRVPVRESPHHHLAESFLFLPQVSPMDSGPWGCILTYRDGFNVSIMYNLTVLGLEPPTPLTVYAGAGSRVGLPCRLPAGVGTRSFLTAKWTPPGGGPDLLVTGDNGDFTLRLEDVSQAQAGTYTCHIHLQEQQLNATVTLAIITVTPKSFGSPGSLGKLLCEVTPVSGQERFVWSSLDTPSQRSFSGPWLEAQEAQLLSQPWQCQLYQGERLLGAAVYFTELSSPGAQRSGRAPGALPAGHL
Experimental: as §3

[4] = target: T4, recombinant human LAG3(ECD)-his (Sino …); assay: SPR (BIAcore 8K), human LAG3(ECD)-his coupled to chip, antibody injected, 1:1 Langmuir; printed a second time as 'Ka values', read as Kd
Experimental: as §3

[5] = target: T4, recombinant human LAG3(ECD)-his (Sino …); assay: ELISA on coated human LAG3(ECD)-his
Experimental: The wells were blocked with 200 µl of blocking buffer (PBS containing 1% BSA, 1% goat serum, and 0.05% Tween 20) for 2 hours at room temperature, and then 100 µl of serially diluted anti-LAG3 antibodies (starting from 40 µg/ml) were added to each well and incubated for 1 hour at RT. Plates were washed for 3 times with PBST (PBS+0.05% Tween 20), added with Goat-anti-mouse IgG-HRP (Sigma, US, Cat #: A9309-1 ml) diluted 5000×, and incubated for 1 hour at RT. Plates were developed with freshly prepared Ultra-TMB (BD, US, Cat #:555214) for 5 minutes at RT. Absorbance was read on a SpectraMaxR i3X (Molecular Devies, US) at 450 nm.
as §2

[6] = target: T5, mouse LAG3 expressed on HEK293A cells (mouse, UniProt Q61790 24-521); assay: FACS on HEK293A cells expressing mouse LAG3
T5 construct: whole, on cells; also called HEK293A/mouse LAG3
T5 sequence (looked up): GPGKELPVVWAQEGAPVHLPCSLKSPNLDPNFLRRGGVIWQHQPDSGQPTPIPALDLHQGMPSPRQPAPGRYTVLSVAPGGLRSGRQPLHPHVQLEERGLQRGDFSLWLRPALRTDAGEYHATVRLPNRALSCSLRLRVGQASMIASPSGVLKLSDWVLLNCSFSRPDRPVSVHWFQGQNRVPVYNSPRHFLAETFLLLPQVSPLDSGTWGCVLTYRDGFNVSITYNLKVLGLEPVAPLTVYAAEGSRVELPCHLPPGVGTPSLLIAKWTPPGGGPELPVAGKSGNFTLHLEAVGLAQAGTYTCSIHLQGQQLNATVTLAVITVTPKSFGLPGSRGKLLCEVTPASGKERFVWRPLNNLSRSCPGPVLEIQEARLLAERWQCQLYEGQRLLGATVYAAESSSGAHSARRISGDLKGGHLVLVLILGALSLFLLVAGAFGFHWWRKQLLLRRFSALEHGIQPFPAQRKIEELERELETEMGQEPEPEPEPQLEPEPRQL

[7] = target: T6, human LAG3 expressed on HEK293A cells (human, UniProt P18627 23-525); assay: FACS on HEK293A cells expressing human LAG3
T6 construct: whole, on cells; also called HEK293A/human LAG3
T6 sequence (looked up): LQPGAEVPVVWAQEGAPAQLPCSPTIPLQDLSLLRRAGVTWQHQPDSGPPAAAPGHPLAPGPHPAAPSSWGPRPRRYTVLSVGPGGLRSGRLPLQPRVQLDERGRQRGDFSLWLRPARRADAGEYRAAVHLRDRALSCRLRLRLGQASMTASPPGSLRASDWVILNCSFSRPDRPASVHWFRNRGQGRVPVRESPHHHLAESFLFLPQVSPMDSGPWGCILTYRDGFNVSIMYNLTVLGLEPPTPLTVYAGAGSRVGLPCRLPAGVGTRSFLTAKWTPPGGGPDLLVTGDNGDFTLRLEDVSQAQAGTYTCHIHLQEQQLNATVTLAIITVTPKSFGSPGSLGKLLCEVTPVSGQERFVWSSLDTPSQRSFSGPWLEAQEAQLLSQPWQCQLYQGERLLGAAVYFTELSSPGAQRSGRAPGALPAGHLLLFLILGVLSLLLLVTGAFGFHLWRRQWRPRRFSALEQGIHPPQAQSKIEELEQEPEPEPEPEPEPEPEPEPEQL

[8] = target: T5, mouse LAG3 expressed on HEK293A cells; assay: FACS on HEK293A cells expressing mouse LAG3; remark: listed apart in the source
[9] = target: T2, monkey (rhesus) LAG3 expressed on …; assay: FACS on HEK293A cells expressing rhesus LAG3; remark: listed apart in the source

Row | Binder | EC50 (read off the curve) (Human PBMC) | EC50 (read off the curve) [1] | Kd [2] | Kd [3] | kon [3] | koff [4] | EC50 (read off the curve) [5] | binding result [6] | EC50 (read off the curve) [7] | binding result [8] | EC50 (read off the curve) [9]
1 | B1 | ~0.02 µg/mL | ~0.8 µg/mL | 0.98 nM | 2.05 nM | 104000 M⁻¹ s⁻¹ | 0.000214 s⁻¹ | ~1 µg/mL |  |  |  | 
2 | B2 |  |  |  | 0.737 nM | 93900 M⁻¹ s⁻¹ |  |  | no binding | ~0.09 µg/mL |  | 
3 | B3 |  |  |  | 0.833 nM | 403000 M⁻¹ s⁻¹ | 0.000335 s⁻¹ |  |  | ~0.05 µg/mL | no binding | ~0.4 µg/mL
